The text below walks through data of article PMC3178552 (PLoS Pathogens, 2011).

Data set [1] concerns the target P60: the first 60 amino acids of VSV phosphoprotein P, a two-amino acid linker and a C-terminal His6-tag (vesicular stomatitis virus, UniProt P03520 1-60). The experiment in a line: NMR titration. As to conditions: both partners purified.
The data set “SEC” concerns the molecule itself. The experiment in a line: SEC. (In general: Size exclusion chromatography separates by hydrodynamic size, large species first.)
For data set [2], the target named is T1, vesicular stomatitis virus nucleoprotein lacking its 21 N-terminal residues (N[change]), MBP tag removed (vesicular stomatitis virus, UniProt P03521 22-422). The data set can be described thus: SEC-MALS. The following applies: both partners purified.
In data set [3] the target is T1, vesicular stomatitis virus ….

As usually defined, the stoichiometry N is a count of units in the complex or per binding partner.

Where two headings read alike, the source gives them in different places.

B1: N[change] in fusion with an N-terminal maltose binding protein tag (MBP-N[change]) (domain or fragment)
chain: EDPVEYPADYFRKSKEIPLYINTTKSLSDLRGYVYQGLKSGNVSIIHVNSYLYGALKDIRGKLDKDWSSFGINIGKAGDTIGIFDLVSLKALDGVLPDGVSDASRTSADDKWLPLYLLGLYRVGRTQMPEYRKKLMDGLTNQCKMINEQFEPLVPEGRDIFDVWGNDSNYTKIVAAVDMFFHMFKKHECASFRYGTIVSRFKDCAALATFGHLCKITGMSTEDVTTWILNREVADEMVQMMLPGQEIDKADSYMPYLIDFGLSSKSPYSSVKNPAFHFWGQLTALLLRSTRARNARQPDDIEYTSLTTAGLLYAYAVGSSADLAQQFCVGDNKYTPDDSTGGLTTNAPPQGRDVVEWLGWFEDQNRKPTPDMMQYAKRAVMSLQGLREKTIGKYAKSEFDK
On to B1, for which the binding result (in data set [1]; in the data set “SEC”) was “binds” each time.

B2: full-length VSV phosphoprotein P dimer (natural protein)
chain: MDNLTKVREYLKSYSRLDQAVGEIDEIEAQRAEKSNYELFQEDGVEEHTKPSYFQAADDSDTESEPEIEDNQGLYAQDPEAEQVEGFIQGPLDDYADEEVDVVFTSDWKPPELESDEHGKTLRLTSPEGLSGEQKSQWLSTIKAVVQSAKYWNLAECTFEASGEGVIMKERQITPDVYKVTPVMNTHPSQSEAVSDVWSLSKTSMTFQPKKASLQPLTISLDELFSSRGEFISVGGDGRMSHKEAILLGLRYKKLYNQARVKYSL
Consider B2, for which the “stoichiometry N” value in data set [2] worked out at 2 P molecules per NΔ21.
For VREYLKSYSRLDQAVGEIDEIEAQRAEKSNYELF [shorter peptide encompassing residues 7 to 40 of P], in data set [3], the “stoichiometry N” value stood at 1.
